# In US20110263454A1, “Methods of Identifying Functional Characteristics of Promoters, Transcription Modifying Proteins and Transcription Modulating Agents” (Salk Institute for Biological Studies, priority 2008, published 2011):
# B1: PR: Progesterone Receptor (NR3C3), cDNA driver (protein, UniProt P06401 1-933, looked up)
# Progesterone receptor: MTELKAKGPRAPHVAGGPPSPEVGSPLLCRPAAGPFPGSQTSDTLPEVSAIPISLDGLLFPRPCQGQDPSDEKTQDQQSLSDVEGAYSRAEATRGAGGSSSSPPEKDSGLLDSVLDTLLAPSGPGQSQPSPPACEVTSSWCLFGPELPEDPPAAPATQRVLSPLMSRSGCKVGDSSGTAAAHKVLPRGLSPARQLLLPASESPHWSGAPVKPSPQAAAVEVEEEDGSESEESAGPLLKGKPRALGGAAAGGGAAAVPPGAAAGGVALVPKEDSRFSAPRVALVEQDAPMAPGRSPLATTVMDFIHVPILPLNHALLAARTRQLLEDESYDGGAGAASAFAPPRSSPCASSTPVAVGDFPDCAYPPDAEPKDDAYPLYSDFQPPALKIKEEEEGAEASARSPRSYLVAGANPAAFPDFPLGPPPPLPPRATPSRPGEAAVTAAPASASVSSASSSGSTLECILYKAEGAPPQQGPFAPPPCKAPGASGCLLPRDGLPSTSASAAAAGAAPALYPALGLNGLPQLGYQAAVLKEGLPQVYPPYLNYLRPDSEASQSPQYSFESLPQKICLICGDEASGCHYGVLTCGSCKVFFKRAMEGQHNYLCAGRNDCIVDKIRRKNCPACRLRKCCQAGMVLGGRKFKKFNKVRVVRALDAVALPQPVGVPNESQALSQRFTFSPGQDIQLIPPLINLLMSIEPDVIYAGHDNTKPDTSSSLLTSLNQLGERQLLSVVKWSKSLPGFRNLHIDDQITLIQYSWMSLMVFGLGWRSYKHVSGQMLYFAPDLILNEQRMKESSFYSLCLTMWQIPQEFVKLQVSQEEFLCMKVLLLLNTIPLEGLRSQTQFEEMRSSYIRELIKAIGLRQKGVVSSSQRFYQLTKLLDNLHDLVKQLHLYCLNTFIQSRALSVEFPEMMSEVIAAQLPKILAGMVKPLLFHKK
# B2: CTF3: COUP-TF3 (NR2F6), cDNA driver (protein, UniProt P10588 1-404, looked up)
# Nuclear receptor subfamily 2 …: MAMVTGGWGGPGGDTNGVDKAGGYPRAAEDDSASPPGAASDAEPGDEERPGLQVDCVVCGDKSSGKHYGVFTCEGCKSFFKRSIRRNLSYTCRSNRDCQIDQHHRNQCQYCRLKKCFRVGMRKEAVQRGRIPHSLPGAVAASSGSPPGSALAAVASGGDLFPGQPVSELIAQLLRAEPYPAAAGRFGAGGGAAGAVLGIDNVCELAARLLFSTVEWARHAPFFPELPVADQVALLRLSWSELFVLNAAQAALPLHTAPLLAAAGLHAAPMAAERAVAFMDQVRAFQEQVDKLGRLQVDSAEYGCLKAIALFTPDACGLSDPAHVESLQEKAQVALTEYVRAQYPSQPQRFGRLLLRLPALRAVPASLISQLFFMRLVGKTPIETLIRDMLLSGSTFNWPYGSGQ
# B3: hMR: Mineralocorticoid Receptor (NR3C2, MR), cDNA driver (protein, UniProt P08235 1-984, looked up)
# Mineralocorticoid receptor: METKGYHSLPEGLDMERRWGQVSQAVERSSLGPTERTDENNYMEIVNVSCVSGAIPNNSTQGSSKEKQELLPCLQQDNNRPGILTSDIKTELESKELSATVAESMGLYMDSVRDADYSYEQQNQQGSMSPAKIYQNVEQLVKFYKGNGHRPSTLSCVNTPLRSFMSDSGSSVNGGVMRAVVKSPIMCHEKSPSVCSPLNMTSSVCSPAGINSVSSTTASFGSFPVHSPITQGTPLTCSPNVENRGSRSHSPAHASNVGSPLSSPLSSMKSSISSPPSHCSVKSPVSSPNNVTLRSSVSSPANINNSRCSVSSPSNTNNRSTLSSPAASTVGSICSPVNNAFSYTASGTSAGSSTLRDVVPSPDTQEKGAQEVPFPKTEEVESAISNGVTGQLNIVQYIKPEPDGAFSSSCLGGNSKINSDSSFSVPIKQESTKHSCSGTSFKGNPTVNPFPFMDGSYFSFMDDKDYYSLSGILGPPVPGFDGNCEGSGFPVGIKQEPDDGSYYPEASIPSSAIVGVNSGGQSFHYRIGAQGTISLSRSARDQSFQHLSSFPPVNTLVESWKSHGDLSSRRSDGYPVLEYIPENVSSSTLRSVSTGSSRPSKICLVCGDEASGCHYGVVTCGSCKVFFKRAVEGQHNYLCAGRNDCIIDKIRRKNCPACRLQKCLQAGMNLGARKSKKLGKLKGIHEEQPQQQQPPPPPPPPQSPEEGTTYIAPAKEPSVNTALVPQLSTISRALTPSPVMVLENIEPEIVYAGYDSSKPDTAENLLSTLNRLAGKQMIQVVKWAKVLPGFKNLPLEDQITLIQYSWMCLSSFALSWRSYKHTNSQFLYFAPDLVFNEEKMHQSAMYELCQGMHQISLQFVRLQLTFEEYTIMKVLLLLSTIPKDGLKSQAAFEEMRTNYIKELRKMVTKCPNNSGQSWQRFYQLTKLLDSMHDLVSDLLEFCFYTFRESHALKVEFPAMLVEIISDQLPKVESGNAKPLYFHRK
# Tested on: mPer1 promoter
# Test: NHR-promoter luciferase screen, mPer1 promoter
# Assay type: cell-based, mouse
# Conditions: Per1 promoter reporter; co-transfected HR, with or without its ligand
# Summary of the method: (§1)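 CV-1 cells were co-transfected with 50 ng NHR (homodimer or NHR/RXR heterodimer), 100 ng promoter-luciferase construct and 50 ng LacZ. Luciferase was normalized to LacZ and to a no-NHR/no-ligand control.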
row,Molecule,"Luc. act., normalized to lacZ"
1,B1,207.4
2,B2,159.0
3,B3,351.9

# Same assay, conditions: Per1 promoter reporter; co-transfected HR, with or without its ligand; relative to control
row,Molecule,"Normalized Luc. act., normalized to control"
1,B1,1.4
2,B2,1.1
3,B3,2.4

# Same assay, conditions: mPer1 promoter-luciferase, CV-1 cells, NHR +/- ligand, control = 1.00
row,Molecule,"luciferase activity normalized to lacZ activity and to a control, mPer1"
1,B1,1.44
2,B2,1.10
3,B3,2.44

# Tested on: mDio2 promoter
# Test: NHR-promoter luciferase screen, mDio2 promoter
# Assay type: cell-based, mouse
# Conditions: Dio2; HR component without or with its ligand
# Summary of the method: as §1
Molecule,"Luc. act., normalized to lacZ","Normalized Luc. act., normalized to control"
B1,21.4,1.4
B2,15.3,1.0
B3,12.7,0.8

# Same assay, conditions: transcription factor +/- ligand; control = 1.00
row,Molecule,mDio2 promoter reporter activity
1,B1,1.36
2,B2,0.97
3,B3,0.81

# Tested on: RevErba promoter
# Test: NHR-promoter luciferase screen, RevErba (RVRa) promoter
# Assay type: cell-based
# Parameters: key to mRevErba promoter reporter activity / Normalized Luc. act., normalized to control: luciferase activity normalized to lacZ and to control (no NHR/ligand)
# Conditions: RVRa promoter; HR component without or with ligand
# Summary of the method: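 CV-1 cells co-transfected with NHR (pcDNA3.1, C-terminal V5H6 tag) as homodimer or RXR heterodimer, RevErbα promoter–luciferase reporter and LacZ transfection control; ligand added where applicable. Luciferase normalized to LacZ and to no-NHR/no-ligand control.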
Molecule,"Luc. act., normalized to lacZ","Normalized Luc. act., normalized to control"
B1,24.1,0.9
B2,19.1,0.7
B3,13.7,0.5

# Same assay, conditions: RVRa promoter; given only where activity is below control
row,Molecule,negative reciprocal of normalized Luc. act. (fold repression; Table 33)
1,B1,−1.16
2,B2,−1.467
3,B3,−2.036

# Same assay, conditions: RVRa promoter; log10 of activity normalized to control
row,Molecule,"normalized Luc. act. on a logarithmic scale (column without head, Table 33)"
1,B1,−0.06
2,B2,−0.17
3,B3,−0.31

# Same assay, conditions: transcription factor +/- ligand; control = 1.00
row,Molecule,mRevErba promoter reporter activity
1,B1,0.86
2,B2,0.68
3,B3,0.49

# Tested on: hMDR1 promoter
# Test: NHR-promoter luciferase screen, hMDR1 promoter
# Assay type: cell-based, human
# Conditions: MDR1 promoter; HR/ligand component
# Summary of the method: as §1
Molecule,"Luc. act., normalized to lacZ","Normalized Luc. act., normalized to control"
B1,0.4,1.3
B2,0.4,1.4
B3,0.1,0.3

# Same assay, conditions: transcription factor +/- ligand; control = 1.00
row,Molecule,hMDR1 promoter reporter activity
1,B1,1.35
2,B2,1.36
3,B3,0.34

# Tested on: mADRP promoter
# Test: NHR-promoter luciferase screen, mADRP promoter
# Assay type: cell-based, mouse
# Conditions: ADRP promoter; HR/ligand component
# Summary of the method: as §1
Molecule,"Luc. act., normalized to lacZ","Normalized Luc. act., normalized to control"
B1,497.2,1.0
B2,462.7,0.9
B3,306.4,0.6

# Same assay, conditions: transcription factor +/- ligand; control = 1.00
row,Molecule,mADRP promoter reporter activity
1,B1,1.00
2,B2,0.93
3,B3,0.62
